Reference: patent US20260347491

Biological target: human CD32b (FcgRIIb) (human) (UniProt P31994)
Test: FACS

Chain of human CD32b (FcgRIIb) (human) (P31994 46-217): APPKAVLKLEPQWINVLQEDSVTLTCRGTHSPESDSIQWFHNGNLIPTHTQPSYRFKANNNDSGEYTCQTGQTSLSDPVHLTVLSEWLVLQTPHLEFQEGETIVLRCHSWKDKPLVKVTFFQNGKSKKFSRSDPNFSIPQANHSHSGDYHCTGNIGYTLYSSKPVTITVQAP

| Substance | EC50 [nM] |
| --- | --- |
| Pertuzumab (full) | 1.35 |
| Trastuzumab (full) | 14.1 |
